Measured values: publication PMC7954794, “Protein context shapes the specificity of SH3 domain-mediated interactions in vivo” (Nature Communications, 2021)

Tested on: PPIs identified as affected by the SH3 domain deletions
Test: Liquid DHFR-PCA low-throughput validation of PPIs affected by SH3 deletion (Fig. S1D-E)
Assay type: cell-based, Saccharomyces cerevisiae
Settings: label = prey, liquid DHFR-PCA, prey _1 = lost, _2 = gained in screen
Protocol: Liquid DHFR-PCA low-throughput experiments were performed to validate the PPIs identified as affected by the SH3 domain deletions in the high-throughput solid DHFR-PCA screen (256 PPIs weaker or lost and 116 PPIs stronger or gained following domain deletions). Mating and the diploid selection were performed as described for the large-scale experiment, with the exception that the plates were in 384 formats. Following the second diploid selection, diploid cells were inoculated in a 96 v-shaped well plate using a robotically manipulated 96 pin tool in a synthetic complete medium with MSG at pH 6.0 with NAT and HPH. After 48 h of growth, optical density (OD) was read using a TECAN Infinite F200 Pro, and dilutions to 1 OD in sterile nanopure water were prepared. Cells were then diluted to 0.1 OD by combining 25 µl of cell suspension at OD = 1 and 225 µl of PCA selection media without agar in a 96-wells plate. Plates were incubated at 30 °C in a TECAN Infinite M Nano and OD was monitored each 15 min for 72 h.

B1: YOR039W_2 (protein, UniProt P38930 1-258, looked up)
Casein kinase II subunit beta': MGSRSENVGTVTREGSRVEQDDVLMDDDSDSSEYVDMWIDLFLGRKGHEYFCDVDPEYITDRFNLMNLQKTVSKFSYVVQYIVDDLDDSILENMTHARLEQLESDSRKLYGLIHARYIITIKGLQKMYAKYKEADFGRCPRVYCNLQQLLPVGLHDIPGIDCVKLYCPSCEDLYIPKSSRHSSIDGAYFGTSFPGMFLQAFPDMVPKHPTKRYVPKIFGFELHKQAQLTRWQELQRLKLVEKLESKDVDLTKSGGFKT
Bait LSB3
  Ratio (Deletedscore / WTscore): 1.116

B2: YOR081C_2 (protein, UniProt Q12043 1-749, looked up)
Triacylglycerol lipase 5: MSNTLPVTEFLLSKYYELSNTPATDSSSLFKWLYHKTLSRKQLLISDLSSQKKHAISYDQWNDIASRLDDLTGLSEWKTIDESSLYNYKLLQDLTIRMRHLRTTHDYHRLLYLIRTKWVRNLGNMNNVNLYRHSHTGTKQIIHDYLEESQAVLTALIHQSNMNDHYLLGILQQTRRNIGRTALVLSGGSTFGLFHIGVLAALFESDLMPKVISGSSAGAIVASIFCVHTTQEIPSLLTNVLNMEFNIFNDDNSKSPNENLLIKISRFCQNGTWFNNQPLINTMLSFLGNLTFREAYNKTGKILNITVSPASIYEQPKLLNNLTAPNVLIWSAVCASCSLPGVFPSTPLFEKDPHTGKIKEWGATNLHLSNMKFMDGSVDNDMPISRLSEMFNVDHIIACQVNIHVFPLLKFSNTCVGGEIEKEITARFRNQVTKIFKFFSDETIHFLDILKELEFHPYLMTKLKHLFLQQYSGNVTILPDLSMVGQFHEVLKNPSQLFLLHQTTLGARATWPKISMIQNNCGQEFALDKAITFLKEKIIISSSIKNPLQFYQPRFSEQIKSLSIMDADLPGVDLEESSSNSLSIIKSPNKTAAPGRFPLQPLPSPSSTFNKRKMDMLSPSPSPSTSPQRSKSSFTQQGTRQKANSLSFAIGASSLRLKKSPLKVPSRPQFKKRSSYYNQNMSAEMRKNRKKSGTISSYDVQTNSEDFPIPAIENGSFDNTLFNPSRFPMDAMSAATNDNFMNNSDIFQN
Bait LSB3
  Ratio (Deletedscore / WTscore): 1.383

B3: YPL246C_2 (protein, UniProt Q12270 1-262, looked up)
Rhomboid-type serine protease …: MNWKSYVFPGGHPPAALTTGLVVFLTAIYLLSFIFALREDLSLAPESLFKLQMSRLSLYPLIHLSLPHLLFNVLAIWAPLNLFEETHGTVYTGVFLNLSALFAGILYCLLGKLLYPEALVAGASGWCFTLFAYYSFKESQIRPRTRIFRTDYSIPTLYTPLVLLVAIAVVIPGSSFWGHFFGLCVGYAIGYKESWFNKITPPGWIITKIEKSLDGLIRLIPWGIKYYRDEDIDRTKDYEPLMSTETPLPLHNDNSGTVLGTA
Bait ABP1
  Ratio (Deletedscore / WTscore): 1.339
Bait LSB3
  Ratio (Deletedscore / WTscore): 1.364
Bait SHO1
  Ratio (Deletedscore / WTscore): 1.171

B4: YFR004W_2 (protein, UniProt P43588 1-306, looked up)
Ubiquitin carboxyl-terminal …: MERLQRLMMNSKVGSADTGRDDTKETVYISSIALLKMLKHGRAGVPMEVMGLMLGEFVDDYTVNVVDVFAMPQSGTGVSVEAVDDVFQAKMMDMLKQTGRDQMVVGWYHSHPGFGCWLSSVDVNTQKSFEQLNSRAVAVVVDPIQSVKGKVVIDAFRLIDTGALINNLEPRQTTSNTGLLNKANIQALIHGLNRHYYSLNIDYHKTAKETKMLMNLHKEQWQSGLKMYDYEEKEESNLAATKSMVKIAEQYSKRIEEEKELTEEELKTRYVGRQDPKKHLSETADETLENNIVSVLTAGVNSVAIK
Bait ABP1
  Ratio (Deletedscore / WTscore): 1.111
Bait LSB3
  Ratio (Deletedscore / WTscore): 1.521
Bait MYO3
  Ratio (Deletedscore / WTscore): 1.308
Bait MYO5
  Ratio (Deletedscore / WTscore): 1.194
Bait RVS167
  Ratio (Deletedscore / WTscore): 1.454

B5: YGR037C_2 (protein, UniProt P31787 1-87, looked up)
Acyl-CoA-binding protein: MVSQLFEEKAKAVNELPTKPSTDELLELYALYKQATVGDNDKEKPGIFNMKDRYKWEAWENLKGKSQEDAEKEYIALVDQLIAKYSS
Bait LSB3
  Ratio (Deletedscore / WTscore): 1.675
Bait MYO3
  Ratio (Deletedscore / WTscore): 1.004
Bait MYO5
  Ratio (Deletedscore / WTscore): 0.9102

B6: YCL024W_2 (protein, UniProt P25389 1-1037, looked up)
Probable …: MTVANTETHSAAKPSSTIGPWKLGETLGFGSTGKVQLAQHERTGHRTAVKVISKSIFNNNGNHSNDDSVLPYNIEREIVIMKLLSHPNVLSLYDVWETNNNLYLILEYAEKGELFNLLVDHGPLPEREAINCFRQIIIGISYCHALGIVHRDLKPENLLLDSFYNIKIADFGMAALQTDADLLETSCGSPHYAAPEIVSGLPYEGFASDVWSCGVILFALLTGRLPFDEENGNVRDLLLKVQKGQFEMPNDTEISRDAQDLIGKILVVDPRQRIKIRDILSHPLLKKYQTIKDSKSIKDLPRENTYLYPLADSNNHTSASIDDSILQNLVVLWHGRHADDIVSKLKENGTNKEKILYALLYRFKLDSVRGSNKKNRNKIKKTKKNKRSSTLSSSSSLLLNNRSIQSTPRRRTSKRHSREFSSSRKRSSFLLSSNPTDSSPIPLRSSKRITHINVASANTQATPSGVPNPHKRNSKKRSSKRLSYMPNTKRSSLTSKSLSNFTNLIDDDDWEYIEKDAKRTSSNFATLIDEIFEPEKFELAKREKAELQRKVQEAKRQSVNAQKINEDEFGSEVSDGMKELKKINDKVSSPLINYEFSQQELLQDIDTLLTNRYQLSSYTRPISRLDPGLTPVTETLPNNLKEKTALLQDTEKKIIETIRRSKFLGSLLNVRGGLSPGKSELAPIEESPIVSTTPLIYNDRMEPRRISDVEVPHFTRKSKHFTTANNRRSVLSLYAKDSIKDLNEFLIKEDPDLPPQGSTDNESRSEDPEIAESITDSRNIQYDEDDSKDGDNVNNDNILSDFPQGVGISQEYDMKDKNPNQSPISKSAEPTLVVKLPSLSSFQGKNASGLGLYQREPSKVTLPSLTSNNSSVGENIEDGAEKGTESEKIAASLSDDDLKEDNDKKDNDTVNAPTTVKKPPNSVLLKKFSKGKILELEIHAKIPEKRLYEGLHKLLEGWKQYGLKNLVFNITNMIITGKLVNDSILFLRSTLFEIMVLPNGDGRSLIKFNKKTGSTKTLTKLATEIQIILQKEGVLDK
Bait NBP2
  Ratio (Deletedscore / WTscore): 1.51

B7: YLR191W_2 (protein, UniProt P80667 1-386, looked up)
Peroxisomal membrane protein …: MSSTAVPRPKPWETSASLEEPQRNAQSLSAMMTSNQQDSRPTEESNNSNSASESAPEVLPRPAALNSSGTYGESNTIPGIYGNSNYGIPYDNNPYSMNSIYGNSIGRYGYGGSYYGNNYGSFYGGGYGAGAGYGMNNGSGLGESTKATFQLIESLIGAVTGFAQMLESTYMATHNSFFTMISVAEQFGNLKEMLGSFFGIFAIMKFLKKILYRATKGRLGIPPKNFAESEGSKNKLIEDFQKFNDSGTINSNEKATRRKISWKPLLFFLMAVFGFPYLLNKFITKLQTSGTIRASQGNGSEPIDPSKLEFARALYDFVPENPEMEVALKKGDLMAILSKKDPLGRDSDWWKVRTKNGNIGYIPYNYIEIIKRRKKIEHVDDETRTH
Bait BEM1-1
  Ratio (Deletedscore / WTscore): 1.873
bait
  Ratio (Deletedscore / WTscore): 1.174

B8: YGR229C_2 (protein, UniProt P32566 1-505, looked up)
Cell wall assembly regulator …: MDLFKRKVKEWVYSLSTDDHYAEYNPDETPTFNMGKRLNSNNGQVNPSQMHLNSVDEEMSMGFQNGVPSNEDINIDEFTSTESNDGVSETLLAWRHIDFWTSEHNPDLNATLSDPCTQNDITHAEEDLEVSFPNPVKASFKIHDGQEDLESMTGTSGLFYGFQLMTLDQVVAMTQAWRNVAKNLNKRSQQGLSHVTSTGSSSSMERLNGNKFKLPNIPDQKSIPPNAVQPVYAHPAWIPLITDNAGNHIGVDLAPGPNGKYAQIITFGRDFDTKFVIAENWGEFLLSFANDLEAGNWYLVDDNDDYFSGDGELVFRDKKSNGPIQDYFEVLKRRTWIKYQENLRSQQQKSQPDTSLQEQKYVPASQKKVAAEQPSTLNAESIKGEDSGSADVQSVQDHESVKIVKTEPSEAETTTVNTESLGQAEHEIKADNVDIKQESERKEDEKQPKVEEKEHVENEHVTESAKKDDDVNKQTEEMNKKEENEIRSDDAKVEEAREEFENIAL
Bait BZZ1-1
  Ratio (Deletedscore / WTscore): 1.034
Bait BZZ1-2
  Ratio (Deletedscore / WTscore): 1.734
Bait LSB1
  Ratio (Deletedscore / WTscore): 1.08
Bait PIN3
  Ratio (Deletedscore / WTscore): 1.619
